Reference: patent US9908923

Biological target: CXCR4 (full-length receptor) (UniProt P61073)
Test: cell-based or functional assay

Chain of CXCR4 (full-length receptor) (P61073 whole entry): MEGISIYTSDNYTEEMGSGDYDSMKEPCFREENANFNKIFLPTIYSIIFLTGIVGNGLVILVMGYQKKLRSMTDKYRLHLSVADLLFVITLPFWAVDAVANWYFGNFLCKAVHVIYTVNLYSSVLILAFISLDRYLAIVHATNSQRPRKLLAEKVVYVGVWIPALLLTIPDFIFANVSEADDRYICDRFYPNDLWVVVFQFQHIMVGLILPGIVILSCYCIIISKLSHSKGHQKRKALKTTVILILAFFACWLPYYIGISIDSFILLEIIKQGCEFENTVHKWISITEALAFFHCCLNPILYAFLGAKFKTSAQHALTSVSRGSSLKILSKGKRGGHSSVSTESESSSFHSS

| Substance | calcium flux EC50 against unmutated CXCL12 |
| --- | --- |
| CXCL12 Asn33 to glutamine mutant (from UniProt P48061 22-89) (ligand) | 6 fold |
| CXCL12 Asn33 to arginine mutant (from UniProt P48061 22-89) (ligand) | 6 fold |
| CXCL12 Asn33 to alanine mutant (from UniProt P48061 22-89) (ligand) | 6 fold |
